Test results reported in the supplement of paper PMC9732359.
± gives the uncertainty stated by the source.

assay: protein stability index of a GFP-peptide fusion (yeast GPS) (PSI 1-4); higher = more stable; sorted into four equal gates, so the index is relative within each strain; conditions: doa10∆
Summary of the method: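 Tiled 17-residue yeast protein peptides were fused downstream of GFP in a plasmid that also expresses Cherry, and the pooled library was carried in yeast. Mid-log cultures in leucine-free medium were sorted into four equal gates by GFP/Cherry fluorescence ratio, and plasmids from each gate were PCR-amplified and Illumina-sequenced, with reads assigned to strains by barcodes. The protein stability index for each peptide was each gate's read frequency times its gate number, summed.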

Sequence	protein stability index
KLLKIPKFISEALAFTS [YDL116W/NUP84]	2.32 ± 0.093
KLLKVCLTMFEDRNESV [ECM29]	2.41 ± 0.14
KLLSLLRSKTSAGRIES [SIR4]	2.11 ± 0.082
KLMDEDSVATVIEVIET [YJR042W/NUP85]	2.85 ± 0.13
KLNQKYDIVKFLTVSKL [GRR1]	1.76 ± 0.037
KLQENRTLLTEEIEPKL [SMC2]	2.91 ± 0.2
KLQGLYENIPIYATFLN [YDL116W/NUP84]	1.32 ± 0.063
KLQSWDKVSSCFPQYVN [NNF1]	1.42 ± 0.099
KLRDHEPDLESQISKAE [SMC4]	2.07 ± 0.13
KLSDIFLSKPSKALYPD [SNF2]	2.53 ± 0.041
KLVRDAFALAKEKAPTI [RPT5]	2.56 ± 0.072
KLVTYIVKFKQKEEGRS [YLR335W/NUP2]	3.1 ± 0.06
KLYDAKRYTSEGTRNRF [YMR129W/POM152]	3.02 ± 0.098
KMDFSSKEGQYKAKIKE [YIL149C/MLP2]	3.2 ± 0.074
KMLNEFVKKTSEEIDSL [SMC2]	2.61 ± 0.099
KMLSCAGADRLQQGMRG [RPL10]	3.43 ± 0.12
KNDLFVIWSEDNDEKLI [RPO21]	2.83 ± 0.077
KNEKLKFQETLLRQKIE [ISW2]	1.36 ± 0.11
KNGVIPEESKGSFKYIT [SWP82]	3.03 ± 0.05
KNIPKTRYNRDYMLSMA [SNU114]	1.94 ± 0.054
KNKENNTFTWNHSLQHQ [RPN4]	2.37 ± 0.083
KNLQRESCEDILDLKEF [RTT102]	3.59 ± 0.21
KNNNGDEKNKNNNEDNE [MED2]	3.23 ± 0.12
KNNNNANNNGSNLQRAQ [GAL11]	3.38 ± 0.13
KNNSSIRNVIMSASNAN [SRB8]	1.59 ± 0.037
KNPHDIIEGINAGEIEI [RPL12A]	2.66 ± 0.075

Sequence	protein stability index
KNQLRDWIRFVSIRQNQ [RPL22B]	1.51 ± 0.1
KNSRVELQKIYDRHQSS [SMC4]	3.46 ± 0.098
KNYDATDKPFSSTQDVI [CSI1]	2.37 ± 0.13
KPKAVARKSKEEREAAA [RPC53]	2.57 ± 0.19
KPLADLRPLFTRYELYI [YLR335W/NUP2]	2.4 ± 0.048
KPNNTANTGGGLFGANS [YGL172W/NUP49]	3.16 ± 0.14
KPNQTIMVLDASIGQAA [SRP54]	2.44 ± 0.095
KPSFSFGVPNSSKNETS [YLR335W/NUP2]	2.13 ± 0.077
KPYVDRFAFSVIWELDD [DIS3]	1.93 ± 0.046
KQDCVDWFTYSYFYRRI [BRR2]	1.69 ± 0.036
KQDEKKSSELELQKLVH [SMC2]	3.23 ± 0.13
KQENSSRFTNVSVIAPE [YMR153W/NUP53]	2.71 ± 0.065
KQFVVDVLHPNRANVSK [RPS24A]	2.94 ± 0.073
KQHAVLMLGSVNLPGGI [RRP4]	2 ± 0.049
KQQEQLEQQKQPTGLLK [YMR153W/NUP53]	3.35 ± 0.13
KQRAGTASFIPLDTIET [SMC1]	2.62 ± 0.06
KQREIVKAFLSIFEDAI [NUT1]	1.92 ± 0.081
KQRFQGCNNLIKNISNR [ARP9]	2.89 ± 0.07
KQRKNPRRIAWTVLFRK [RPL24A]	3.03 ± 0.14
KQVLDVDPVYKDVAKPT [FAS2]	2.98 ± 0.065
KRAEKAARKAEKAKSAG [RPL24B]	2.91 ± 0.073
KRAFTKKVASANATAAE [RPL16A]	2.73 ± 0.068
KRCMDDLNPLKTLNLFK [RPO31]	2.98 ± 0.15
KRFLILQGEVENIAQMK [SMC4]	3.05 ± 0.29
KRIESLQKDLQRQKTYV [SMC1]	3.01 ± 0.16
KRIKGLEFSALSAADIV [RPO31]	3.09 ± 0.09

Sequence	protein stability index
KRLLGTAFKSSPFGGSS [RPS23A]	2.22 ± 0.043
KRLNFSFVGDYMHDTEL [GRR1]	2.55 ± 0.065
KRPGKLSDYIPGPYPNE [CYT1]	3.19 ± 0.059
KRPRSRTLTAVHDKVLE [RPS7B]	3.36 ± 0.17
KRPTPPSFTFGGSTTNN [YOR098C/NUP1]	2.74 ± 0.051
KRRFGELMDRTGLKLYS [RPP1]	2.21 ± 0.18
KRSMDAEQLGHASKRHK [RPP1]	2.54 ± 0.058
KRSQKKHKKKHLKHENA [RPB4]	3.03 ± 0.044
KRTIRIKTQQHILPEVP [TAF14]	1.92 ± 0.059
KRVDFSGRTVISPDPNL [RPO31]	2.44 ± 0.1
KSAISNNFRESDIIILK [SIR4]	3 ± 0.08
KSFYSTATGAASKSGKL [CYT1]	2.74 ± 0.091
KSGRINGFHGRLGDLGV [SMC4]	3.41 ± 0.11
KSMASAFGVSVAFLDND [RPN7]	3.04 ± 0.091
KSMGRKCFDDIEPHIFD [YCG1]	3.15 ± 0.075
KSMLSKPETLSIGKNPF [SWI3]	2.69 ± 0.053
KSMSILNSFVNDIFERI [HTB1]	2.73 ± 0.1
KSSFVKESAVISKQKSK [SMC1]	2.18 ± 0.1
KSSLYSAQDLLDKHERK [YIL149C/MLP2]	3.05 ± 0.084
KSSPISNEAAKPSFSFP [YOR098C/NUP1]	2.86 ± 0.05
KSTYRTPNFDDVLKENN [RIP1]	1.54 ± 0.087
KSVEKTMIKKTTLVTRR [SMC3]	3.17 ± 0.23
KTAIEGSYIDKKCPFTG [RPS11A]	3.12 ± 0.069
KTAPIQESFVPNSERSG [YOR098C/NUP1]	2.27 ± 0.24
KTAQTLDENLNSLSSNL [YJL041W/NSP1]	2.48 ± 0.04
KTATVKINKKLNKAGKP [RPL38]	2.73 ± 0.17

Sequence	protein stability index
KTCAKSVIQLCGGINDS [ECM29]	3.43 ± 0.26
KTFEIKEIKTNEYVIKT [YMR129W/POM152]	2.58 ± 0.1
KTIQINNEKVVQYLRSV [YML031W/NDC1]	3.23 ± 0.17
KTKKEKGPNEEEKKKEH [RPN2]	3.05 ± 0.28
KTLTEEVTKSSHVENLE [YIL149C/MLP2]	2.81 ± 0.053
KTTNTTPSFSFGAKSDE [YJL041W/NSP1]	3.27 ± 0.079
KTVAVDSVFEQNEMIDA [RPL3]	2.57 ± 0.095
KTVQSMTQRAIQSAESI [SWI3]	2.5 ± 0.11
KTYALESINNVVDQLWS [RPN2]	2.82 ± 0.066
KVDATPEESKPINLQNG [YLR335W/NUP2]	2.9 ± 0.088
KVDSPDDPFMTKSGATT [GAL11]	2.51 ± 0.077
KVFDCGDNIVMSANGFA [PRE7]	2.88 ± 0.24
KVFVPPKSKSLPNEMSQ [RPO31]	3.1 ± 0.13
KVGAEMMMQQQLKNVQL [MED2]	2.54 ± 0.11
KVGIWPYFDYIFNDILA [YJL039C/NUP192]	1.67 ± 0.11
KVKKPLKYLSVEEVIKL [PRE7]	2.54 ± 0.084
KVLINDQLSTISMILRN [SWI1]	2.28 ± 0.047
KVLKSGSGVDSSKLQLT [RRP42]	2.94 ± 0.14
KVLQLLRLTRINSGTFV [RPL7A]	1.8 ± 0.097
KVSAREKSAYKFFHNGM [FAS2]	3.5 ± 0.14
KVSSAEYYAKKRAFTKK [RPL16A]	3 ± 0.098
KVVKTPGGILRAQHVKK [RPL34A]	2.76 ± 0.074
KWPEYVRVQRQKKILSI [RPL8A]	1.2 ± 0.06
KWQTLIEANVTVKTSDD [RPS1A]	1.42 ± 0.05
